Experimental data as given in the RNAGym collection of RNA variant scans (doi:10.7554/elife.90254).

B1: OR4K15 (parent)
chain: GUUAACGGUCAUAGGCCAUGGAAACUAGGAGCACCAUUUCGCUGCCAGUGAAGAAAUGAACAAAGAAAAUCUGGGCCAGGCAGGCAUCAAAAGAAAUAGUCUUGCGCUCAACCAGAAAGUCUGUAAUCAUUUUAAGGGUA

Variants of: B1
Assay: self-cleavage, relative activity (ratio to wild type); higher = more cleavage; in vitro, sequencing; the parent is a self-cleaving ribozyme
For U39C A114G, the self-cleavage was 0.72. With C40A A91G the self-cleavage was 1.76. U39C A68G showed a self-cleavage of 1.37. U39G C105A showed a self-cleavage of 0.16. U39C A125U showed a self-cleavage of 1.8. For U39C C81U, the self-cleavage was 0.63. For G41C A111G, the self-cleavage was 0.02. Work on C40U A89G yielded a self-cleavage of 1.33. C40U A89U gave a self-cleavage of 1.93. For C40A A68G, the self-cleavage was 1.61. Variant C40U A62C has a self-cleavage of 1.11. C40U A62G showed a self-cleavage of 1.2. U39C A69C showed a self-cleavage of 1.33. G41A G106A gave a self-cleavage of 0.01. For G41A A129G, the self-cleavage was 0.61. For G41A A116G, the self-cleavage was 0.63. U39C A135C showed a self-cleavage of 1.38. Work on C40G A90G yielded a self-cleavage of 1.44. In the case of C40A A135G, the self-cleavage is reported as 1.29. Work on U39G U102C yielded a self-cleavage of 2.67. For U39A U43C, the self-cleavage was 1.95. With U39A U43A the self-cleavage was 1.66. In the case of C40U A90G, the self-cleavage is reported as 1.72. For U39C U100A, the self-cleavage was 0.56. U39C U100C gave a self-cleavage of 2.44. Variant C40U A114U has a self-cleavage of 0.1. Work on C40U A69G yielded a self-cleavage of 0.94. With C40U A98G the self-cleavage was 0.83. Variant U39A G115C has a self-cleavage of 0.52. Work on U39A G115U yielded a self-cleavage of 0.27. In the case of U39A G48U, the self-cleavage is reported as 1.24. Work on U39G A90G yielded a self-cleavage of 1.08. With G41A G136A the self-cleavage was 1.2. In the case of U39C A96G, the self-cleavage is reported as 1.77. Variant U39C A96C has a self-cleavage of 0.78. For U39C A96U, the self-cleavage was 1.52. With U39C U127A the self-cleavage was 2.26. Variant C40G U72C has a self-cleavage of 0.41. For U39G A126G, the self-cleavage was 1.03. With G41C A52G the self-cleavage was 1.59. Work on G41A C113U yielded a self-cleavage of 0.02. For U39A U70C, the self-cleavage was 0.92. C40A gave a self-cleavage of 1.83. Variant C40G has a self-cleavage of 1.62. Work on C40U yielded a self-cleavage of 1.57. Work on U39A U57A yielded a self-cleavage of 1.37. With C40A U97C the self-cleavage was 1.43. With U39A U103C the self-cleavage was 2.1. In the case of U39C A52U, the self-cleavage is reported as 2.16. U39C C105U gave a self-cleavage of 0.24. Variant U39C G53A has a self-cleavage of 1.53. Work on U39C U87A yielded a self-cleavage of 1.92. With C40A U102C the self-cleavage was 1.98. With U39C G58A the self-cleavage was 0.67. Variant C40U A116C has a self-cleavage of 0.08. U39A C112G showed a self-cleavage of 0. Variant C40U U87C has a self-cleavage of 1.44. Work on U39C U97C yielded a self-cleavage of 1.29. With U39C U108A the self-cleavage was 0.03. U39A U130C gave a self-cleavage of 1.09. Work on U39A G138A yielded a self-cleavage of 0.14. In the case of U39C U70C, the self-cleavage is reported as 0.95. U39C A91U showed a self-cleavage of 1.59. In the case of C40A A94G, the self-cleavage is reported as 2.28. Work on U39C U139C yielded a self-cleavage of 1.9. In the case of U39C U133C, the self-cleavage is reported as 2.27. With C40U A111G the self-cleavage was 0.02. U39A A125U showed a self-cleavage of 2.5. Variant U39C U49C has a self-cleavage of 0.91. Work on U39C G115U yielded a self-cleavage of 0.04. In the case of U39C G50U, the self-cleavage is reported as 1.89. In the case of G41A U100C, the self-cleavage is reported as 1.52. In the case of G41A A82U, the self-cleavage is reported as 0.14. For U39C A95U, the self-cleavage was 1.78. Variant U39C C76U has a self-cleavage of 0.19. Variant U39C U103C has a self-cleavage of 0.93. Work on G41U A78G yielded a self-cleavage of 0.36. With U39C U120C the self-cleavage was 0.95. Work on G41A U108C yielded a self-cleavage of 0.01. Variant U39A A140G has a self-cleavage of 1.16. With G41A U87C the self-cleavage was 0.63. Variant U39C U102C has a self-cleavage of 2.19. Variant G41A A110C has a self-cleavage of 0.4. With C40U A63G the self-cleavage was 2.13. U39A A111G gave a self-cleavage of 0.02. In the case of G41A A63G, the self-cleavage is reported as 1.4. Work on G41C A69G yielded a self-cleavage of 1.84. U39G A62G gave a self-cleavage of 1.3. C40A A60G showed a self-cleavage of 1.56. G41A A54U gave a self-cleavage of 1.03. G41A U130G showed a self-cleavage of 1.4. C40U U108C showed a self-cleavage of 0.02. In the case of C40A A51G, the self-cleavage is reported as 1.81. For U39C A111C, the self-cleavage was 0.01. With U39C A111G the self-cleavage was 0.02. For G41A U103C, the self-cleavage was 1.76. In the case of U39C A55G, the self-cleavage is reported as 1.66. In the case of U39A A135G, the self-cleavage is reported as 1.75. U39C G41U gave a self-cleavage of 1.16. U39C G41A showed a self-cleavage of 2. With U39A A117U the self-cleavage was 1.81. U39C A47U showed a self-cleavage of 0.79. For U39C A64G, the self-cleavage was 1.88. Work on U39C A78G yielded a self-cleavage of 0.26. Work on U39C C128U yielded a self-cleavage of 1.42. For U39C C128A, the self-cleavage was 0.73. In the case of G41A A86G, the self-cleavage is reported as 1.05. Variant U39C C71U has a self-cleavage of 0.29. Variant U39C G99A has a self-cleavage of 0.3. For G41A U122G, the self-cleavage was 1.51. In the case of U39G A95G, the self-cleavage is reported as 1.81. U39C A116G gave a self-cleavage of 0.83. U39C A116C gave a self-cleavage of 0.07. U39C U130C gave a self-cleavage of 1.12. Work on U39C A60G yielded a self-cleavage of 1.42. In the case of C40U G99A, the self-cleavage is reported as 0.32. U39A A114G showed a self-cleavage of 0.77. In the case of G41A U43A, the self-cleavage is reported as 1.69. G41A U43C gave a self-cleavage of 1.72. With U39C A118U the self-cleavage was 0.78. With C40A A95G the self-cleavage was 2.53. In the case of U39C C45G, the self-cleavage is reported as 1.5. Work on U39C C45A yielded a self-cleavage of 0.46. Work on U39C C45U yielded a self-cleavage of 1.46. Variant U39C G106U has a self-cleavage of 0.02. In the case of C40A A114G, the self-cleavage is reported as 0.11. U39C A126U showed a self-cleavage of 1.06. Variant U39C A126G has a self-cleavage of 1.18. U39C G123A gave a self-cleavage of 2.04. For U39A U127A, the self-cleavage was 1.46. Work on U39C A51G yielded a self-cleavage of 1.5. Variant U39C A63G has a self-cleavage of 1.66. G41A A89G gave a self-cleavage of 2.8. Variant C40U U103A has a self-cleavage of 1.28. For G41C A98G, the self-cleavage was 0.57. For C40A A64G, the self-cleavage was 2.37. Work on U39C A140C yielded a self-cleavage of 1.79. Variant C40U G44A has a self-cleavage of 2.32. Work on C40A A59U yielded a self-cleavage of 2. Work on U39C A67G yielded a self-cleavage of 1.24. U39C A67U showed a self-cleavage of 1.9. Work on U39C A66U yielded a self-cleavage of 1.28. Work on C40U A78U yielded a self-cleavage of 0.32. C40U A78G showed a self-cleavage of 0.44. For U39C C40U, the self-cleavage was 1.54. Variant G41C A135G has a self-cleavage of 1.81. With G41A A64G the self-cleavage was 2.12. For G41A A67G, the self-cleavage was 1.02. U39C A134G showed a self-cleavage of 1.83. C40U A118G gave a self-cleavage of 1.21. With U39G A67U the self-cleavage was 1.13. Work on U39A U102C yielded a self-cleavage of 1.55. In the case of U39C A82U, the self-cleavage is reported as 0.22. U39A U122C showed a self-cleavage of 1.39. C40A U122C gave a self-cleavage of 1.07. U39A U49C showed a self-cleavage of 1. Variant U39A U97C has a self-cleavage of 1.85. Variant U39C A98G has a self-cleavage of 0.98. Work on C40U U100C yielded a self-cleavage of 1.83. In the case of G41A A117G, the self-cleavage is reported as 0.44. Variant G41C U139A has a self-cleavage of 1.78. U39C A110G gave a self-cleavage of 0.14. In the case of C40U A51U, the self-cleavage is reported as 2. Variant G41C A86U has a self-cleavage of 0.57. Variant U39A A116U has a self-cleavage of 0.09. For G41A A96G, the self-cleavage was 1.7. G41U A51G gave a self-cleavage of 1.69.
